Laboratory results: article PMC7147772, “Biochemical characterization of the Nocardia lactamdurans ACV synthetase” (PLoS ONE, 2020)

How the values were obtained:
Assay in all cases: ACV tripeptide formation, HPLC/MS
Format in all cases: biochemical, Amycolatopsis lactamdurans
N[C@@H](CCCC(=O)O)C(=O)O = conditions: L-Cys and L-Val co-substrates, 5 mM ATP, 5 mM MgCl2, 2 mM DTT, CoA and Sfp, pH 7.0, 30 °C, module 1
N[C@@H](CS)C(=O)O = conditions: L-α-Aaa and L-Val co-substrates, 5 mM ATP, 5 mM MgCl2, 2 mM DTT, CoA and Sfp, pH 7.0, 30 °C, module 2
CC(C)[C@H](N)C(=O)O = conditions: L-α-Aaa and L-Cys co-substrates, 5 mM ATP, 5 mM MgCl2, 2 mM DTT, CoA and Sfp, pH 7.0, 30 °C, module 3

## Nl ACVS (L-δ-(α-aminoadipoyl)-L-cysteinyl-D-valine synthetase) (Amycolatopsis lactamdurans)
N[C@@H](CCCC(=O)O)C(=O)O
  Km: 640 ± 16 µM
N[C@@H](CS)C(=O)O
  Km: 40 ± 1 µM
CC(C)[C@H](N)C(=O)O
  Km: 150 ± 4 µM
